Columns and labels:
human CD180 [1] = target: T1, human CD180 (human, UniProt Q99467 24-661); assay: flow cytometry on human B cells (figure legend)
T1 construct: whole, on cells; Native CD180 on primary human B cells; also called RP105; Bgp95
T1 sequence: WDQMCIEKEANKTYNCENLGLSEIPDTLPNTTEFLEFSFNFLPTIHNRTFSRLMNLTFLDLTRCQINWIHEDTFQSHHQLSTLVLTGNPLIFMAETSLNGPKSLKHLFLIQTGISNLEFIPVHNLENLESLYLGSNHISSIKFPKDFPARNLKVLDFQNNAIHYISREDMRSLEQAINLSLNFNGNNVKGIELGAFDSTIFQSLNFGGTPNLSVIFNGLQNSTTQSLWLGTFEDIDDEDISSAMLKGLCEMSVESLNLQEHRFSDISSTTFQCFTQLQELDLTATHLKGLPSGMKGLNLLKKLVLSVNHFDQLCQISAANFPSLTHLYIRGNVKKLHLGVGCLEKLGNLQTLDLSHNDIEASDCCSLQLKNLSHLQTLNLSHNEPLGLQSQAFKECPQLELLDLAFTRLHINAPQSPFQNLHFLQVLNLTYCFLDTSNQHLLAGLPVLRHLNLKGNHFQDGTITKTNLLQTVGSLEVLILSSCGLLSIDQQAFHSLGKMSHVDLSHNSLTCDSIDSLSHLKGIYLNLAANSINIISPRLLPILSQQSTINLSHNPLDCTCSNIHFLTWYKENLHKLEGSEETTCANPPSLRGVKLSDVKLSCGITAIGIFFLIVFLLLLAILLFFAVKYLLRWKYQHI

human CD180 [2] = target: T1, human CD180; assay: flow cytometry competition on human B cells; 2.5 ug unlabelled G28-8 first, then 10 ug G28-8-PE

B1: G28-8LH-HBcAgY132A-His (scFv)
chain: DIQMTQSPASLSASVGETVTITCRASEKIYSYLAWYQQKQGKSPQLLVYNAKTLAEGVPSRFSVSGSGTQFSLRINSLQPEDFGTYYCQHHFGSPRTFGGGTKLEIKDLGGGGSGGGGSGGGGSGGGGSTGEVQLQQSGPELVKPGASMKISCKASGYSFTGYTMNWVKQSHGKTLEWIGLINPYNGVTSYNQKFKDKATLTVDKSSSTAYMELLSLTSEDSAIYYCARDYNYDYFDYWGQGTTLTVSSGGGGSGGGGSGGGGSGGGGSMDIDPYKEFGASVELLSFLPSDFFPSIRDLLDTASALYREALESPEHCSPHHTALRQAILCWGELMNLATWVGSNLEDPASRELVVSYVNVNMGLKIRQLLWFHISCLTFGRETVLEYLVSFGVWIRTPPAARPPNAPILSTLPETTVVHHHHHH
notes: Anti-human CD180 scFv (VL-VH) fused to HBcAg(1-149) Y132A and a 6xHis tag, made in CHO cells and purified on nickel resin; the tested protein carried it, since it was detected with anti-6xHis; also called aCD180-HBVAg; HBcAg-CD180
B1: binds (human CD180 [1]).

B2: G28-8 anti-human CD180 monoclonal antibody (antibody, V domains shown)
VH: EVQLQQSGPELVKPGASMKISCKASGYSFTGYTMNWVKQSHGKTLEWIGLINPYNGVTSYNQKFKDKATLTVDKSSSTAYMELLSLTSEDSAIYYCARDYNYDYFDYWGQGTTLTVSS
VL: DIQMTQSPASLSASVGETVTITCRASEKIYSYLAWYQQKQGKSPQLLVYNAKTLAEGVPSRFSVSGSGTQFSLRINSLQPEDFGTYYCQHHFGSPRTFGGGTKLEIK
notes: Commercial parent monoclonal antibody, a whole IgG; also called G28-8 mAb; parent G28-8 antibody
B2: binds (human CD180 [2]).

Reference: US20200306367A1 (University of Washington, published 2020)
